From patent US20140120109A1 (Regeneron, published 2014)
Changes are numbered by the printed parent chain. Each block holds one binder with its values, some of them ahead of it.

Assays:
[1] = molecular target: T1, Fhm, hTL1A(Q167R), soluble, E. coli-expressed, residues 72-251 of SEQ ID NO:246 (human, UniProt O95150 72-251); assay: SPR 37C, mAb captured
T1 construct: with or without N-terminal Met
T1 chain: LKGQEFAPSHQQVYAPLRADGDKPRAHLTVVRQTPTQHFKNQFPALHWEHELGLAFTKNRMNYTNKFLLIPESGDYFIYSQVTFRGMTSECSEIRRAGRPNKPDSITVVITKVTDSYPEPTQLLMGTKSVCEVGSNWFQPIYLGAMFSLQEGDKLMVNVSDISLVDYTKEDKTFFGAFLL
How it was run: (§1)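 Biacore T100 SPR with captured mAb and soluble TL1A/Fhm analyte; ka and kd fitted to a 1:1 model assuming monomeric TL1A. KD = kd/ka; t1/2 (min) = ln2/(60·kd).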

[2] = molecular target: T2, rat TL1A, soluble, CHO-expressed, residues 76-252 of SEQ ID NO:258 with N-terminal His6-tag (rat, UniProt Q8K3Y7 76-252); assay: SPR 37C, mAb captured
T2 construct: also called rTL1A; rTL1A (CHO)
T2 sequence: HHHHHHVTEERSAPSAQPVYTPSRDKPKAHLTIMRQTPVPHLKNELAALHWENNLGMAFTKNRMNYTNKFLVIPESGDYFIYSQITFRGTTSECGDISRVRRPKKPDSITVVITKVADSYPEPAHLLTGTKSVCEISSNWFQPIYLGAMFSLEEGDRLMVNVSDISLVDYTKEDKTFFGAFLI
How it was run: as §1

[3] = molecular target: T3, mouse TL1A, soluble, CHO-expressed, residues 76-252 of SEQ ID NO:250 with N-terminal His6-tag (mouse, UniProt Q5UBV8 76-252); assay: SPR 37C, mAb captured
T3 construct: also called mTL1A; mTL1A (CHO)
T3 sequence: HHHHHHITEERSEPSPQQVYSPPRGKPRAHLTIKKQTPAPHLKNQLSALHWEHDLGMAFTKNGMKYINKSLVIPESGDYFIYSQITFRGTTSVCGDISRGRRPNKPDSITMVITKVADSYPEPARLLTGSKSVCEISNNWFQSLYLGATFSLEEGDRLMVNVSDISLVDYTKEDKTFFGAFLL
How it was run: as §1

[4] = molecular target: T4, cynomolgus monkey TL1A, soluble, E. coli-expressed, residues 72-251 of SEQ ID NO:248 (cynomolgus monkey (Macaca fascicularis), UniProt O95150 72-251 (human entry)); assay: SPR 37C, mAb captured
T4 construct: with or without N-terminal Met; also called MfTL1A (E. Coli)
T4 chain: T1 chain with F39L, I78V, R96Q
How it was run: as §1

[5] = molecular target: T5, mouse TL1A, soluble, E. coli-expressed, residues 76-252 of SEQ ID NO:250 (mouse, UniProt Q5UBV8 76-252); assay: SPR 25C, steady state
T5 construct: with or without N-terminal Met; also called mTL1A (E. Coli)
T5 sequence: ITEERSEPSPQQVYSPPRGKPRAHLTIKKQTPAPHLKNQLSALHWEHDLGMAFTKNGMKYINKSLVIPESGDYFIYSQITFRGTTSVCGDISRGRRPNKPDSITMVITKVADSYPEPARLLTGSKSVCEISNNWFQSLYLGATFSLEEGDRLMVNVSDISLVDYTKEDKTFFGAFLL
How it was run: as §1

[6] = molecular target: T1, Fhm, hTL1A(Q167R), soluble, E. …; assay: SPR 25C, mAb captured
How it was run: as §1

[7] = molecular target: T4, cynomolgus monkey TL1A, soluble, E. …; assay: SPR 25C, mAb captured
How it was run: as §1

[8] = molecular target: T6, human TL1A, soluble, CHO-expressed, residues 72-251 of SEQ ID NO:244 with N-terminal His6-tag (human, UniProt O95150 72-251); assay: SPR 37C, mAb captured
T6 construct: also called hTL1A; hTL1A (CHO)
T6 sequence: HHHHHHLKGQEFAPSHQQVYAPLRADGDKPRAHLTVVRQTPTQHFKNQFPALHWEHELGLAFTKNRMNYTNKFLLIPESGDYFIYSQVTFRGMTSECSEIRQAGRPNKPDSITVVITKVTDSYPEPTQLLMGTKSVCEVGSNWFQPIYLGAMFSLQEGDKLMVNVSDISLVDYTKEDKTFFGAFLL
How it was run: as §1

[9] = molecular target: T7, cynomolgus monkey TL1A, soluble, CHO-expressed, residues 72-251 of SEQ ID NO:248 with N-terminal His6-tag (cynomolgus monkey (Macaca fascicularis), UniProt O95150 72-251 (human entry)); assay: SPR 37C, mAb captured
T7 construct: also called MfTL1A; MfTL1A (CHO)
T7 chain: T6 sequence with F45L, I84V
How it was run: as §1

Kd [1]: 0.696 nM | t1/2 [1]: 45 min | Kd [2]: 0.653 nM | t1/2 [2]: 27 min | binding result [3]: no binding (tested: up to 100 nM) | Kd [4]: 0.945 nM | t1/2 [4]: 35 min | binding result [5]: no binding (tested: up to 100 nM) | Kd [6]: 0.437 nM | t1/2 [6]: 129 min | Kd [7]: 0.593 nM | t1/2 [7]: 97 min
B1: H4H1742P (antibody, human IgG4 S228P, V domains shown)
VH: EVQLVESGGGLVQPGGSLRLSCAASGFTFSNYVMNWVRQAPGKGLEWVSVISGSGGSTHYADSVKGRFTISRDNSKDALYLQMNSLRAEDTAVYYCAKGPLEAYYYYNGMDVWGQGTTVTVSS
VL: DIQLTQSPSFLSASVGDRVTITCWASQAISSYLAWYQHKPGRAPKLLIYSTSTLQSGVPSRFSGSGSGTEFTLTISSLQPEDFATYYCQQLNSYPTFGQGTKLEIK

Kd [1]: 0.207 nM | t1/2 [1]: 71 min | Kd [2]: 16.5 nM | t1/2 [2]: 11 min | Kd [8]: 0.177 nM | t1/2 [8]: 129 min | binding result [3]: no binding (tested: up to 100 nM) | Kd [4]: 0.281 nM | t1/2 [4]: 74 min | Kd [9]: 0.173 nM | t1/2 [9]: 124 min | binding result [5]: no binding (tested: up to 100 nM) | Kd [6]: 0.115 nM | t1/2 [6]: 226 min | Kd [7]: 0.141 nM | t1/2 [7]: 221 min
B2: H4H1745P (antibody, human IgG4 S228P, V domains shown)
VH: EVQLVESGGGLVQPGGSLRLSCAASGFTFSSYAMTWVRQAPGKGLEWVSGVSGRGGSTYYADSVKGRFTISRDNSKNTLYLQMNSLRAEDTAVYYCAYWDISSFDYWGQGTLVTVSS
VL: DIQLTQSPSFLSASVGDRVTITCWASQGISTYLAWYQQKPGKTPKLLIYAASTLQSGVPSRFSGSGSGTDFTLTISSLQPEDFATYYCQQFNSYPLTFGGGTKVEIK

Kd [1]: 0.174 nM | t1/2 [1]: 42 min | Kd [2]: 0.078 nM | t1/2 [2]: 86 min | Kd [8]: 0.00761 nM | t1/2 [8]: 1910 min | binding result [3]: no binding (tested: up to 100 nM) | Kd [4]: 0.289 nM | t1/2 [4]: 40 min | Kd [9]: 0.00201 nM | t1/2 [9]: 5780 min | binding result [5]: no binding (tested: up to 100 nM) | Kd [6]: 0.109 nM | t1/2 [6]: 96 min | Kd [7]: 0.242 nM | t1/2 [7]: 79 min
B3: H4H1719P (antibody, human IgG4 S228P, V domains shown)
VH: EVQLVESGGGLVQPGRSLRLSCVASGFTFQDYAMHWVRQAPGKGLEWVSGINWISDDMGYADSVMGRFTISRDNAKNSLYLQMDSLRAEDTALYYCAKDKGLRFLDYVMDVWGQGTTVTVSA
VL: DIVMTQSPLSLPVTPGEPASISCRSTQSLLHRNGHNYLHWYLHKPGQSPQLLIHLGSNRASGVPDRFSGSGSGTDFTLKISRVEAEDVGVYYCMQALQTPYTFGQGTKLEIK
